Paper PMC2680711 (Nature structural & molecular biology, 2008)

T1: Rtt109 (recombinant, purified) (yeast, UniProt Q07794 1-436)
T1 sequence (looked up): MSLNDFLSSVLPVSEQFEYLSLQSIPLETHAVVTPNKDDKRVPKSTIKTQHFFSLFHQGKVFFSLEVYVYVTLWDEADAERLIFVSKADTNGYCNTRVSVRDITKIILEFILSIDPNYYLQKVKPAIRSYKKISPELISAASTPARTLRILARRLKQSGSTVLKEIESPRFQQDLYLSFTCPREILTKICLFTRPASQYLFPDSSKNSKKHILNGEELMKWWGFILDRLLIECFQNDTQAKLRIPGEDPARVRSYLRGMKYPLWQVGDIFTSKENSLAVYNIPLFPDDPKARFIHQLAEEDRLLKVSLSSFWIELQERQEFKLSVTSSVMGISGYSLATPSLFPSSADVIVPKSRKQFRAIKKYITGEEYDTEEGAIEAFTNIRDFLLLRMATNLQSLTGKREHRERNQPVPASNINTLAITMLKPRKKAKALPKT


Columns and labels:
AUC = biological target: the molecule itself; assay: AUC
[1] = biological target: T1, Rtt109 (recombinant, purified); assay: AUC
[2] = biological target: recombinant yeast (H3-H4)2 tetramer (yeast, UniProt P61830 1-136; P02309 1-103); assay: other fluorescence titration

Binder | stoichiometry N (AUC) | binding result [1] | Kd [2] [nM]
Vps75_(1−223) (Vps75 lacking the C-terminal acidic domain) (domain or fragment, S. cerevisiae, UniProt P53853 1-223, looked up) MMSDQENENEHAKAFLGLAKCEEEVDAIEREVELYRLNKMKPVYEKRDAYIDEIAEFWKIVLSQHVSFANYIRASDFKYIDTIDKIKVEWLALESEMYDTRDFSITFHFHGIEGDFKEQQVTKVFQIKKGKDDQEDGILTSEPVPIEWPQSYDSINPDLIKDKRSPEGKKKYRQGMKTIFGWFRWTGLKPGKEFPHGDSLASLFSEEIYPFCVKYYAEAQRDL | 2 | binds | 
Alexa-546-labeled Vps75 (natural protein, S. cerevisiae, Alexa-546 label, position not stated) MMSDQENENEHAKAFLGLAKCEEEVDAIEREVELYRLNKMKPVYEKRDAYIDEIAEFWKIVLSQHVSFANYIRASDFKYIDTIDKIKVEWLALESEMYDTRDFSITFHFHGIEGDFKEQQVTKVFQIKKGKDDQEDGILTSEPVPIEWPQSYDSINPDLIKDKRSPEGKKKYRQGMKTIFGWFRWTGLKPGKEFPHGDSLASLFSEEIYPFCVKYYAEAQRDLEDEEGESGLSADGDSEDDDGSLGEVDLPLSDEEPSSKKRKV |  |  | 27
